Values quoted from earlier work as cited in patent US20130252257A1, “QUANTIFICATION OF CIRCULATING STEM AND PROGENITOR CELLS AS A MEANS OF ASSESSING EFFICACY OF NATUROPATHIC INTERVENTIONS” (Creative Medical Health, Inc., priority 2011, published 2013).
Where two headings read alike, the source gives them in different places.

Columns and labels:
[1] = tested on: circulating EPC; conditions: in vivo
[2] = tested on: endothelial responsiveness
[3] = tested on: endothelial progenitor cells (EPC); conditions: in addition to mobilizing HSC
[4] = tested on: ST-elevation myocardial infarction; conditions: 6 days of G-CSF at 10 μg/kg
[5] = tested on: myocardial infarct; conditions: 114 patients, 56 treated and 58 control
[6] = tested on: large anterior wall AMI; conditions: 41 patients with large anterior wall AMI

CC(C)c1nc(N(C)S(C)(=O)=O)nc(-c2ccc(F)cc2)c1/C=C/[C@@H](O)C[C@@H](O)CC(=O)O [Crestor]
circulating EPC levels [1]: increase circulating EPC levels

growth hormone: growth hormone, used in antiaging medicine; clinically-applicable mobilizer
endothelial responsiveness ([2]; healthy volunteers): improve endothelial responsiveness | endothelial responsiveness ([2]; patients with congestive heart failure): improve endothelial responsiveness

B1: G-CSF: Granulocyte colony stimulating factor, used clinically for mobilization of hematopoietic stem cells (protein, UniProt P09919 31-207, looked up)
Granulocyte …: TPLGPASSLPQSFLLKCLEQVRKIQGDGAALQEKLVSECATYKLCHPEELVLLGHSLGIPWAPLSSCPSQALQLAGCLSQLHSGLFLYQGLLQALEGISPELGPTLDTLQLDVADFATTIWQQMEELGMAPALQPTQGAMPAFASAFQRRAGGVLVASHLQSFLEVSYRVLRHLAQP
mobilization of EPC [3]: stimulates mobilization of EPC | ejection fraction ([4]; in comparison to controls): Statistically significant improvements | pathological remodeling ([4]; in comparison to controls): inhibition of pathological remodeling | myocardial wall at the area of infarct ([4]; four months after infarct, versus controls, sustained over a year): thicker myocardial wall | infarct size, left ventricular function, or coronary restenosis [5]: no influence | left ventricle ejection fraction (LVEF) [6]: improvement | pathological remodeling [6]: diminished pathological remodeling
